Test results from patent US20070274915.

System: AU-tagged PLC-γ1
Sequence (P19174 2-1290): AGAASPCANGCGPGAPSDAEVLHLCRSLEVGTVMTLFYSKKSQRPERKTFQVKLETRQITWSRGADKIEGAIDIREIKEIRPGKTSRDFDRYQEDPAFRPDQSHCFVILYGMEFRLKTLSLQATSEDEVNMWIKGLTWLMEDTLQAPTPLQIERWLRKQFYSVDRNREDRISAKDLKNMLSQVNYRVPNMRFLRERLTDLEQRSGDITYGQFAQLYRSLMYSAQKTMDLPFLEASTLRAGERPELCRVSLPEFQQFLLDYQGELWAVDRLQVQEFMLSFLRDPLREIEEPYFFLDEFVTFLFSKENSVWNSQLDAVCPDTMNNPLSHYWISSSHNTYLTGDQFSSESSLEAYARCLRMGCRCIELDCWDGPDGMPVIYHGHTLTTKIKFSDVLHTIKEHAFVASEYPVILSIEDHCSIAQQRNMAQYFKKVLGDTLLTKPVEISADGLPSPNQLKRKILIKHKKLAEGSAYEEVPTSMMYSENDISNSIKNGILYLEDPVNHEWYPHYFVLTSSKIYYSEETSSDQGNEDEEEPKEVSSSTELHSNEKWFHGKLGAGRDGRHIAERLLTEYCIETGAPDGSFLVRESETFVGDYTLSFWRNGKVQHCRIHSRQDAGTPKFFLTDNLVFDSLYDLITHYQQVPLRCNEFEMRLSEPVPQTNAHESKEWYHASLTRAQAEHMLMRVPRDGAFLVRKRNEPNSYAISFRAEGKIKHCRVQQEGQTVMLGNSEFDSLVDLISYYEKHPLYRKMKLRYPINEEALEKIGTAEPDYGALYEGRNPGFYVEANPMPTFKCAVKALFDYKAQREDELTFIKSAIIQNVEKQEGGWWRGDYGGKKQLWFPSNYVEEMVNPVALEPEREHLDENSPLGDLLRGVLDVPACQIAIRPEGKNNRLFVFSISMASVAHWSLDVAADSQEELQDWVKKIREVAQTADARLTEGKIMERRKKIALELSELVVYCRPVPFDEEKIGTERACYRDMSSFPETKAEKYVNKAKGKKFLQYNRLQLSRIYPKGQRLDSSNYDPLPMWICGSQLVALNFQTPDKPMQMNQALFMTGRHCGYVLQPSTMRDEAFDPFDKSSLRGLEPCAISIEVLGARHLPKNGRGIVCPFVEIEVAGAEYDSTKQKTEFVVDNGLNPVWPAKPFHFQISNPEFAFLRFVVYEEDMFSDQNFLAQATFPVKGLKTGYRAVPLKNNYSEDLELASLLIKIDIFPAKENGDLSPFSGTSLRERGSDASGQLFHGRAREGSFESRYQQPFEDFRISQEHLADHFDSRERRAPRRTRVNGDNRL

Chain of myc-tagged Itch (chain, as listed by the source): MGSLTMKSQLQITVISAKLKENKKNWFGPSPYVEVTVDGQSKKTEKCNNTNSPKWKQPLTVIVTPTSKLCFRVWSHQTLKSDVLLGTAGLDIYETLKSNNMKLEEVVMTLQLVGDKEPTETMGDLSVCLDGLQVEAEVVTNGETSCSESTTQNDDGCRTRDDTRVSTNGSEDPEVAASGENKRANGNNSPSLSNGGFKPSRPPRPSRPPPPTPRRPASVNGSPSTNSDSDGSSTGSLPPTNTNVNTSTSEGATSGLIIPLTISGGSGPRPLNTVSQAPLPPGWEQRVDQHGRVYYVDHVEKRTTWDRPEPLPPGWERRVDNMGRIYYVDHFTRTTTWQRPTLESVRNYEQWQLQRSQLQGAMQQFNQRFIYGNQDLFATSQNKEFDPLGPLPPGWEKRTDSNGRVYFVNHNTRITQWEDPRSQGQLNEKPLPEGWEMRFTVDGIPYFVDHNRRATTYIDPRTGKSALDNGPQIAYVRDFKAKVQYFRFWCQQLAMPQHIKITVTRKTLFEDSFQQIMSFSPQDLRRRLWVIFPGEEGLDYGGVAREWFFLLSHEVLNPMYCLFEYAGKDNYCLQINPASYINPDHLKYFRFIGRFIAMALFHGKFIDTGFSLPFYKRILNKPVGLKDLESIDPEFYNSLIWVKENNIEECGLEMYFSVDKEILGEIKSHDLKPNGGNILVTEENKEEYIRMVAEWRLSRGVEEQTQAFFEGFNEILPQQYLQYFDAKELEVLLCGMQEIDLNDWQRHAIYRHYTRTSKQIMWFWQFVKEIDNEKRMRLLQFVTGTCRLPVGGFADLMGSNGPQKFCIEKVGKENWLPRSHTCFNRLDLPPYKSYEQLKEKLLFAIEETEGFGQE

Substance: myc-tagged Itch
- ionomycin-dependent degradation of PLC-γ1 (HEK 293 transfection, immunoblot): Itch and Nedd4 both facilitated the ionomycin-dependent degradation of PLC-γ1
